Assay results from US20190177414A1.

Experiments:
[1] = target: CTLA4-mFc fusion protein (human); assay: competitive ELISA; competitor B7-1-hFc coated 1 ug/ml; CTLA4-mFc 0.3 ug/ml
[2] = target: CTLA4-mFc fusion protein (human); assay: competitive ELISA; competitor B7-1-hFc coated 1 ug/ml; CTLA4-mFc 0.3 ug/ml; antibody 3 ug/ml; replicate 1
[3] = target: CTLA4-mFc fusion protein (human); assay: competitive ELISA; competitor B7-1-hFc coated 1 ug/ml; CTLA4-mFc 0.3 ug/ml; antibody 3 ug/ml; replicate 2
[4] = target: CTLA4-mFc fusion protein (human); assay: competitive ELISA; competitor B7-1-hFc coated 1 ug/ml; CTLA4-mFc 0.3 ug/ml; antibody 0 (no antibody); replicate 1
[5] = target: CTLA4-mFc fusion protein (human); assay: competitive ELISA; competitor B7-1-hFc coated 1 ug/ml; CTLA4-mFc 0.3 ug/ml; antibody 0 (no antibody); replicate 2
[6] = target: CTLA4-mFc fusion protein (human); assay: competitive ELISA; competitor B7-1-hFc coated 1 ug/ml; CTLA4-mFc 0.3 ug/ml; antibody dilution 1:3 from 3 ug/ml; replicate 1
[7] = target: CTLA4-mFc fusion protein (human); assay: competitive ELISA; competitor B7-1-hFc coated 1 ug/ml; CTLA4-mFc 0.3 ug/ml; antibody dilution 1:3 from 3 ug/ml; replicate 2
[8] = target: CTLA4-mFc fusion protein (human); assay: competitive ELISA; competitor B7-1-hFc coated 1 ug/ml; CTLA4-mFc 0.3 ug/ml; antibody dilution 1:9 from 3 ug/ml; replicate 1
[9] = target: CTLA4-mFc fusion protein (human); assay: competitive ELISA; competitor B7-1-hFc coated 1 ug/ml; CTLA4-mFc 0.3 ug/ml; antibody dilution 1:9 from 3 ug/ml; replicate 2
[10] = target: CTLA4-mFc fusion protein (human); assay: competitive ELISA; competitor B7-1-hFc coated 1 ug/ml; CTLA4-mFc 0.3 ug/ml; antibody dilution 1:27 from 3 ug/ml; replicate 1
[11] = target: CTLA4-mFc fusion protein (human); assay: competitive ELISA; competitor B7-1-hFc coated 1 ug/ml; CTLA4-mFc 0.3 ug/ml; antibody dilution 1:27 from 3 ug/ml; replicate 2
[12] = target: CTLA4-mFc fusion protein (human); assay: competitive ELISA; competitor B7-1-hFc coated 1 ug/ml; CTLA4-mFc 0.3 ug/ml; antibody dilution 1:81 from 3 ug/ml; replicate 1
[13] = target: CTLA4-mFc fusion protein (human); assay: competitive ELISA; competitor B7-1-hFc coated 1 ug/ml; CTLA4-mFc 0.3 ug/ml; antibody dilution 1:81 from 3 ug/ml; replicate 2
[14] = target: CTLA4-mFc fusion protein (human); assay: competitive ELISA; competitor B7-1-hFc coated 1 ug/ml; CTLA4-mFc 0.3 ug/ml; antibody dilution 1:243 from 3 ug/ml; replicate 1
[15] = target: CTLA4-mFc fusion protein (human); assay: competitive ELISA; competitor B7-1-hFc coated 1 ug/ml; CTLA4-mFc 0.3 ug/ml; antibody dilution 1:243 from 3 ug/ml; replicate 2
[16] = target: CTLA4-mFc fusion protein (human); assay: competitive ELISA; competitor B7-1-hFc coated 1 ug/ml; CTLA4-mFc 0.3 ug/ml; antibody dilution 1:729 from 3 ug/ml; replicate 1
[17] = target: CTLA4-mFc fusion protein (human); assay: competitive ELISA; competitor B7-1-hFc coated 1 ug/ml; CTLA4-mFc 0.3 ug/ml; antibody dilution 1:729 from 3 ug/ml; replicate 2

Chain of CTLA4-mFc fusion protein (human) (chain, as listed by the source limits assumed): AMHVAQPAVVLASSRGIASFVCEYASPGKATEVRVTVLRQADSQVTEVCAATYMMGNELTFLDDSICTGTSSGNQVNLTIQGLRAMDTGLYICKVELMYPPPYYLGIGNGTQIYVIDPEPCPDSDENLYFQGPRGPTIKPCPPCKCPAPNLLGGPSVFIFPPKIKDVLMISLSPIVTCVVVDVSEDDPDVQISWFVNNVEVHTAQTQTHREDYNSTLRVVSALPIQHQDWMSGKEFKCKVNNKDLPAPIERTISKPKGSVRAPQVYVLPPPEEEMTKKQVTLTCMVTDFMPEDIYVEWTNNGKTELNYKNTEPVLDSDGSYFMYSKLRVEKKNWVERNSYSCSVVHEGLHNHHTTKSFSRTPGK

EC50 [1]: 1.12 nM | absorbance at 450 nm [2]: 0.147 | absorbance at 450 nm [3]: 0.14 | absorbance at 450 nm [4]: 0.888 | absorbance at 450 nm [5]: 0.732 | absorbance at 450 nm [6]: 0.144 | absorbance at 450 nm [7]: 0.133 | absorbance at 450 nm [8]: 0.351 | absorbance at 450 nm [9]: 0.312 | absorbance at 450 nm [10]: 0.442 | absorbance at 450 nm [11]: 0.365 | absorbance at 450 nm [12]: 0.572 | absorbance at 450 nm [13]: 0.663 | absorbance at 450 nm [14]: 0.556 | absorbance at 450 nm [15]: 0.554 | absorbance at 450 nm [16]: 0.726 | absorbance at 450 nm [17]: 0.692
Substance: control antibody 10D1 (anti-CTLA4 antibody)
